Reference: the supplement of paper PMC12338614
± gives the uncertainty stated by the source.

B1: library; numbered along this chain (parent)
chain: MEVVDPQQLGMFTEGELMSVGMDTFIHRIDSTEVIYQPRRKRAKLIGKYLMGDLLGEGSYGKVKEVLDSETLCRRAVKILKKKKLRRIPNGEANVKKEIQLLRRLRHKNVIQLVDVLYNEEKQKMYMVMEYCVCGMQEMLDSVPEKRFPVCQAHGYFCQLIDGLEYLHSQGIVHKDIKPGNLLLTTGGTLKISDLGVAEALHPFAADDTCRTSQGSPAFQPPEIANGLDTFSGFKVDIWSAGVTLYNITTGLYPFEGDNIYKLFENIGKGSYAIPGDCGPPLSDLLKGMLEYEPAKRFSIRQIRQHSWFRKKHPPAEAPVPIPPSPDTKDRWRSMTVVPYLEDLHGADEDEDLFDIEDDIIYTQDFTVPGQVPEEEASHNGQRRGLPKAVCMNGTEAAQLSTKSRAEGRAPNPARKACSASSKIRRLSACKQQ

Variants of: B1
Assay: STK11 functional score (HeLa growth suppression), rescaled enrichment; synonymous median = 1, nonsense median = 0 (normalised score)
Conditions: with HeLa; variant type: missense
Experimental: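 Deep mutational scan (TileSeq/POPCode codon randomisation) of full-length codon-optimised STK11 cDNA integrated at a Bxb1 landing pad (AAVS1) in HeLa cells. Restoring functional STK11 suppresses HeLa proliferation. Variant frequencies were measured by NGS before and after about two weeks of growth. The error-corrected enrichment log-ratio was rescaled so that synonymous median = 1 and nonsense median = 0, scores above 1 were compressed, and codon-level and three biological replicate scores were combined; error is the bootstrapped standard error. Scale: synonymous median = 1, nonsense median = 0; below 0.5 = damaging.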

MEVVDPQQLGMFTEGELMSVGMDTFIHRIDSTEVIYQPRRKRAKLIGKYLMGDLLGEGSYGKVKEVLDSETLCRRAVKILKKKKLRRIPNGEANVKKEIQLLRRLRHKNVIQLVDVLYNEEKQKMYMVMEYCVCGMQEMLDSVPEKRFPVCQAHGYFCQLIDGLEYLHSQGIVHKDIKPGNLLLTTGGTLKISDLGVAEALHPFAADDTCRTSQGSPAFQPPEIANGLDTFSGFKVDIWSAGVTLYNITTGLYPFEGDNIYKLFENIGKGSYAIPGDCGPPLSDLLKGMLEYEPAKRFSIRQIRQHSWFRKKHPPAEAPVPIPPSPDTKDRWRSMTVVPYLEDLHGADEDEDLFDIEDDIIYTQDFTVPGQVPEEEASHNGQRRGLPKAVCMNGTEAAQLSTKSRAVGRAPNPARKACSASSKIRRLSACKQQ [E407V] and MEVVDPQQLGMFTEGELMSVGMDTFIHRIDSTEVIYQPRRKRAKLIGKYLMGDLLGEGSYGKVKEVLDSETLCRRAVKILKKKKLRRIPNGEANVKKEIQLLRRLRHKNVIQLVDVLYNEEKQKMYMVMEYCVCGMQEMLDSVPEKRFPVCQAHGYFCQLIDGLEYLHSQGIVHKDIKPGNLLLTTGGTLKISDLGVAEALHPFAADDTCRTSQGSPAFQPPEIANGLDTFSGFKVDIWSAGVTLYNITTGLYPFEGDNIYKLFENIGKGSYAIPGDCGPPLSDLLKGMLEYEPAKRFSIRQIRQHSWFRKKHPPAEAPVPIPPSPDTKDRWRSMTVVPYLEDLHGADEDEDLFDVEDDIIYTQDFTVPGQVPEEEASHNGQRRGLPKAVCMNGTEAAQLSTKSRAEGRAPNPARKACSASSKIRRLSACKQQ [I356V] are within error of each other in STK11 functional score: 1.38 ± 0.25 for the first, 1.46 ± 0.28 for the second.

First: MEVVDPQQLGMFTEGELMSVGMDTFIHRIDSTEVIYQPRRKRAKLIGKYLMGDLLGEGSYGKVKEVLDSETLCRRAVKILKKKKLRRIPNGEANVKKEIQLLRRLRHKNVIQLVDVLYNEEKQKMYMVMEYCVCGMQEMLDSVPEKRFPVCQAHGYFCQLIDGLEYLHSQGIVHKDIKPGNLLLTTGGTLKISDLGVAEALHPFAADDTCRTSQGSPAFQPPEIANGLDTFSGFKVDIWSAGVTLYNITTGLYPFEGDNIYKLFEGIGKGSYAIPGDCGPPLSDLLKGMLEYEPAKRFSIRQIRQHSWFRKKHPPAEAPVPIPPSPDTKDRWRSMTVVPYLEDLHGADEDEDLFDIEDDIIYTQDFTVPGQVPEEEASHNGQRRGLPKAVCMNGTEAAQLSTKSRAEGRAPNPARKACSASSKIRRLSACKQQ [N266G]
Second: MEVVDPQQLGMFTEGELMSVGMDTFIHRIDSTEVIYQPRRKRAKLIGKYLMGDLLGEGSYGKVKEVLDSETLCRRAVKILKKKKLRRIPNGEANVKKEIQLLRRLRHKNVIQLVDVLYNEEKQKMYMVMEYCVCGMQEMLDSVPEKRFPVCQAHGYFCQLIDGLEYLHSQGIVHKDIKPGNLLLTTGGTLKISDLGVAEALHPFAADDTCRTSQGSPAFQPPEIANGLDTFSGFKVDIWSAGVTLYNITTGLYPFEGDNIYKLFENIGKGSYAIPGDCGPPLSDLLKGMLEYEPAKRFSIRQIRQHSWFRKKHPPAEAPVPWPPSPDTKDRWRSMTVVPYLEDLHGADEDEDLFDIEDDIIYTQDFTVPGQVPEEEASHNGQRRGLPKAVCMNGTEAAQLSTKSRAEGRAPNPARKACSASSKIRRLSACKQQ [I322W]
The STK11 functional score of the first is lower: 0.477 ± 0.1 for the first, 1.18 ± 0.088 for the second.

MEVVDPQQLGMFTEGELMSVGMDTFIHRIDSTEVIYQPRRKRAKLIGKYLMGDLLGEGSYGKVKEVLDSETLCRRAVKILKKKKLRRIPVGEANVKKEIQLLRRLRHKNVIQLVDVLYNEEKQKMYMVMEYCVCGMQEMLDSVPEKRFPVCQAHGYFCQLIDGLEYLHSQGIVHKDIKPGNLLLTTGGTLKISDLGVAEALHPFAADDTCRTSQGSPAFQPPEIANGLDTFSGFKVDIWSAGVTLYNITTGLYPFEGDNIYKLFENIGKGSYAIPGDCGPPLSDLLKGMLEYEPAKRFSIRQIRQHSWFRKKHPPAEAPVPIPPSPDTKDRWRSMTVVPYLEDLHGADEDEDLFDIEDDIIYTQDFTVPGQVPEEEASHNGQRRGLPKAVCMNGTEAAQLSTKSRAEGRAPNPARKACSASSKIRRLSACKQQ [N90V] and MEVVDPQQLGMFTEGELMSVGMDTFIHRIDSTEVIYQPRRKRAKLIGKYLMGDLLGEGSYGKVKEVLDSETLCRRAVKILKKKKLRRIPNGEANVKKEIQLLRRLRHKNVIQLVDVLYNEEKQKMYMVMEYCVCGMQEMLDSVPEKRFPVCQAHGYFCQLIDGLEYLHSQGIVHKDIKPGNLLLTTGGTLKISDLGVAEALHPFAADDTCRTSQGSPAFQPPEIANGLDTFSGFKVDIWSAGVTLYNITTGLYPFEGDNIYKLFENIGKGSYAIPGDCGPPLSDLLKGMLEYEPAKRFSIRQIRQHSWFRKKHPPAEAPVPIPPSPDTKDRWRSMTVVPYLEDLHGADEDEDLFDIEDDIIYTQDFTVPGQVPEEEASHNGQRRGLPKAVCMNGTEAAQLSTKSRAEGRAPNCARKACSASSKIRRLSACKQQ [P413C] are the same in STK11 functional score: 1.17 ± 0.3 for the first, 1.17 ± 0.41 for the second.

MEVVDPQQLGMFTEGELMSVGMDTFIHRIDSTEVIYQPRRKRAKLIGKYLMGDLLGEGSYGKVKEVLDSETLCRRAVKILKKKKLRRIPNGEANVKKEIQLLRRLRHKNVIQLVDVLYNEEKQKMYMVMEYCVCGMQEMLDSVPEKRFPVCQAHGYFCQLIDGLEYLHSQGIVHKDIKPGNLLLTTGGTLKISDLGVAEALHPFAADDTCRTSQGSAAFQPPEIANGLDTFSGFKVDIWSAGVTLYNITTGLYPFEGDNIYKLFENIGKGSYAIPGDCGPPLSDLLKGMLEYEPAKRFSIRQIRQHSWFRKKHPPAEAPVPIPPSPDTKDRWRSMTVVPYLEDLHGADEDEDLFDIEDDIIYTQDFTVPGQVPEEEASHNGQRRGLPKAVCMNGTEAAQLSTKSRAEGRAPNPARKACSASSKIRRLSACKQQ [P217A] and MEVVDPQQLGMFTEGELMSVGMDTFIHRIDSTEVIYQPRRKRAKLIGKYLMGDLLGEGSYGKVKEVLDSETLCRRAVKILKKKKLRRIPNGEANVKKEIQLLRRLRHKNVIQLVDVLYNEEHQKMYMVMEYCVCGMQEMLDSVPEKRFPVCQAHGYFCQLIDGLEYLHSQGIVHKDIKPGNLLLTTGGTLKISDLGVAEALHPFAADDTCRTSQGSPAFQPPEIANGLDTFSGFKVDIWSAGVTLYNITTGLYPFEGDNIYKLFENIGKGSYAIPGDCGPPLSDLLKGMLEYEPAKRFSIRQIRQHSWFRKKHPPAEAPVPIPPSPDTKDRWRSMTVVPYLEDLHGADEDEDLFDIEDDIIYTQDFTVPGQVPEEEASHNGQRRGLPKAVCMNGTEAAQLSTKSRAEGRAPNPARKACSASSKIRRLSACKQQ [K122H] are within error of each other in STK11 functional score: 1.25 ± 0.66 for the first, 1.68 ± 0.18 for the second.

MEVVDPQQLGMFTEGELMSVGMDTFIHRIDSTEVIYQPRRKRAKLIGKYLMGDLLGEGSYGKVKEVLDSETLCRRAVKILKKKKLRRIPNGEANVKKEIQLLRRLRHKNVIQLVDVLYNEEKQKMYMVMEYCVCGMQEMLDSVPEKRFPVCQAHGYFCQLIDGLEYLHSQGIVHKDIKPGNLLLTTGGTLKISDLGVAEALHPFAADDTCRTSQGSPAFQPPEIANGLDTFSGFKVDIWSAGVTLYNITTGLYPFEGDNIYKLFENIGKGSYAIPGDCGPPLSDLLKGMLEYEPAKRPSIRQIRQHSWFRKKHPPAEAPVPIPPSPDTKDRWRSMTVVPYLEDLHGADEDEDLFDIEDDIIYTQDFTVPGQVPEEEASHNGQRRGLPKAVCMNGTEAAQLSTKSRAEGRAPNPARKACSASSKIRRLSACKQQ [F298P] and MEVVDPQQLGMFTEGELMSVGMDTFIHRIDSTEVIYQPRRKRAKLIGKYLMGDLLGEGSYGKVKEVLDSETLCRRAVKILKKKKLRRIPNGEANVKKEIQLLRRLRHKNVIQLVDVLYNEEKQKMYMVMEYCVCGMQEMLDSVPEKRFPVCQAHGYFCQLIDGLEYLHSQGIVHKDIKPGNLLLTTGGTLKISDLGVAEALHPFAADDTCRTSQGSPAFQPPEIANGLDTFSGFKVDIWSAGVTLYNITTGLYPFEGDNIYKLFENIGKGSYAIPGDCGPPLSDLLKGMLEYEPAKRFSIRQIRQHSWFRKKHPPAEAPVPIPPSPDTKDRWRGMTVVPYLEDLHGADEDEDLFDIEDDIIYTQDFTVPGQVPEEEASHNGQRRGLPKAVCMNGTEAAQLSTKSRAEGRAPNPARKACSASSKIRRLSACKQQ [S334G] are within error of each other in STK11 functional score: 1.16 ± 0.26 for the first, 1.35 ± 0.17 for the second.

Going from MEVVDPQQLGMFTEGELMSVGMDTFIHRIDSTEVIYQPRRKRAKLIGKYLMGDLLGEGSYGKVKEVLDSETLCRRAVKILKKKKLRRIPNGEANVKKEIQLLRRLRHKNAIQLVDVLYNEEKQKMYMVMEYCVCGMQEMLDSVPEKRFPVCQAHGYFCQLIDGLEYLHSQGIVHKDIKPGNLLLTTGGTLKISDLGVAEALHPFAADDTCRTSQGSPAFQPPEIANGLDTFSGFKVDIWSAGVTLYNITTGLYPFEGDNIYKLFENIGKGSYAIPGDCGPPLSDLLKGMLEYEPAKRFSIRQIRQHSWFRKKHPPAEAPVPIPPSPDTKDRWRSMTVVPYLEDLHGADEDEDLFDIEDDIIYTQDFTVPGQVPEEEASHNGQRRGLPKAVCMNGTEAAQLSTKSRAEGRAPNPARKACSASSKIRRLSACKQQ [V110A] to MEVVDPQQLGMFTEGELMSVGMDTFIHRIDSTEVIYQPRRKRAKLIGKYLMGDLLGEGSYGKVKEVLDSETLCRRAVKILKKKKLRRIPNGEANVKKEIQLLRRLRHKNVIQLVDVLYNEEKQKMYMVMEYCVCGMQEMLDSVPEKRFPVCQAHGYFCQLIDGLEYLHSQGIVHKDIKPGNLLLTTGGTLKISDLGVAEALHPFAADDTCRTSQGSPAFQPPEIANGLDTFSGFKVDIWSAGVTLYNITTGLYPFEGDNIYKLFENIGKGSYAIPGDCGPPLSDLLKGMLEYEPAKRFSIRQIRQHSWFRKKHPPAEAPVPIPPSPDTKDRWRSMTVVPYLEDLHGADEDEDLFDIEDDIIYTQDFTVPGQVPEEEASHNGQRRGLPKAVCMNGTEAAQLSTKSRAEGRAPNPARKPCSASSKIRRLSACKQQ [A417P], the STK11 functional score rises from 0.184 ± 0.078 to 1.2 ± 0.39.

MEVVDPQQLGMFTEGELMSVGMDTFIHRIDSTEVIYQPRRKRAKLIGKYLMGDLLGEGSYGKVKEVLDSETLCRRAVKILKKKKLRRIPNGEANVKKEIQLLRRLRHKNVIQLVDVLYNEEKQKMYMVMEYCVCGMQEMLDSVPEKRFPVCQAHGYFCQLIDGLEYLHSQGIVHKDIKPGNLLHTTGGTLKISDLGVAEALHPFAADDTCRTSQGSPAFQPPEIANGLDTFSGFKVDIWSAGVTLYNITTGLYPFEGDNIYKLFENIGKGSYAIPGDCGPPLSDLLKGMLEYEPAKRFSIRQIRQHSWFRKKHPPAEAPVPIPPSPDTKDRWRSMTVVPYLEDLHGADEDEDLFDIEDDIIYTQDFTVPGQVPEEEASHNGQRRGLPKAVCMNGTEAAQLSTKSRAEGRAPNPARKACSASSKIRRLSACKQQ [L184H] and MEVVDPQQLGMFTEGELMSVGMDTFIHRIDSTEVIYQPRRKRAKLIGKYLMGDLLGEGSYGKVKEVLDSETLCRRAVKILKKKKLRRIPNGEANVKKEIQLLRRLRHKNVIQLVDVLYNEEKQKMYMVMEYCVCGMQEMLDSVPEKRFPVCQAHGYFCQLIDGLEYLHSQGIVHKDIKPGNLLLTTGGTLKISDLGVAEALHPFAADDTCRTSQGSPAFQPPEIANGLDTFSGFKVDIWSAGVTLYNITTGLYPFEGDNIYKLFENIGKGSYAIPGDCGPPLSDLLKGMLEYEPAKRFSIRQIRQHSWFRKKHPPAEAPVPIPPSPDTKDRWRSMTVVPYLEDLHGADEDEDLFDIEDDIIYTQDFTVPGQVPEEEASHNGRRRGLPKAVCMNGTEAAQLSTKSRAEGRAPNPARKACSASSKIRRLSACKQQ [Q382R] are within error of each other in STK11 functional score: 0.93 ± 0.43 for the first, 1.48 ± 0.17 for the second.
